According to US20160039913A1 (LFB USA, published 2016):

What was measured:
Test in all cases: cell-based or functional assay
HIV-1 JR-FL gp120 [1] = molecular target: T1, HIV-1 JR-FL gp120 (HIV-1, isolate JR-FL)
HIV-1 67970 gp120 = HIV-1 67970 gp120 (HIV-1, isolate 67970)
HIV-1 SF162 gp120 [2] = molecular target: T2, HIV-1 SF162 gp120 (HIV-1, isolate SF162, UniProt P19550 32-502)
HIV-1 93MW960 gp120 [3] = molecular target: T3, HIV-1 93MW960 gp120 (HIV-1, isolate 93MW960)
HIV-1 BaL gp120 [4] = molecular target: T4, HIV-1 BaL gp120 (HIV-1, isolate BaL)
HIV-1 89.6 gp120 [5] = molecular target: T5, HIV-1 89.6 gp120 (HIV-1, isolate 89.6, UniProt Q73372 32-508)
HIV-1 JR-FL gp120 [6] = molecular target: T1, HIV-1 JR-FL gp120; remark: listed apart in the source
HIV-1 SF162 gp120 [7] = molecular target: T2, HIV-1 SF162 gp120; design: unit not given beside the values
HIV-1 89.6 gp120 [8] = molecular target: T5, HIV-1 89.6 gp120; design: unit not given beside the values
HIV-1 SF162 gp120 [9] = molecular target: T2, HIV-1 SF162 gp120; remark: listed apart in the source
HIV-1 93MW960 gp120 [10] = molecular target: T3, HIV-1 93MW960 gp120; remark: listed apart in the source
HIV-1 BaL gp120 [11] = molecular target: T4, HIV-1 BaL gp120; remark: listed apart in the source
HIV-1 89.6 gp120 [12] = molecular target: T5, HIV-1 89.6 gp120; remark: listed apart in the source
HIV-1 JR-FL gp120 [13] = molecular target: T1, HIV-1 JR-FL gp120; remark: listed apart in the source

B1: F425-A1g8 IgA1 antibody variant (antibody)
heavy: QEQLVESGGGVVQPGRSLRLSCEASGFIFSAFVLHWVRQAPGKGLEWVAVVWYDGNSKYYADSVKGRFTISRDTSQNTLHLQMDSLRPEDTAVYYCAREWVADDDTFDGFDVWGQGTMVTVSSASLTSPKVFPLSLCSTQPDGNVVIACLVQGFFPQEPLSVTWSESGQGVTARNFPPSQDASGDLYTTSSQLTLPATQCLAGKSVTCHVKHYTNPSQDVTVPCPVPSTPPTPSPSTPPTPSPSCCHPRLSLHRPALEDLLLGSEANLTCTLTGLRDASGVTFTWTPSSGKSAVQGPPDRDLCGCYSVSSVLSGCAEPWNHGKTFTCTAAYPESKTPLTATLSKSGNTFRPEVHLLPPPSEELALNELVTLTCLARGFSPKDVLVRWLQGSQELPREKYLTWASRQEPSQGTTTFAVTSILRVAAEDWKKGDTFSCMVGHEALPLAFTQKTIDRLAGKPTHVNVSVVMAEVDGTCY
light: not shown
Q: For B1, which “IC50, neutralization of HIV-1 JR-FL (TZM-bl cells, no sCD4)” value (HIV-1 JR-FL gp120 [1]) is on record?
A: 1.73 µg/mL

Q: What about the “IC50, neutralization of HIV-1 67970 (TZM-bl cells, no sCD4)” value (HIV-1 67970 gp120) of the same binder?
A: 23.3 µg/mL

Q: And the “IC50, ADCVI with neutrophils, SF162-infected PBMC” value (HIV-1 SF162 gp120 [2])?
A: 6.1 µg/mL

Q: And the “IC50, ADCVI with neutrophils, 93MW960-infected PBMC” value (HIV-1 93MW960 gp120 [3])?
A: 18.3 µg/mL

Q: What about the “IC50, ADCVI with neutrophils, BaL-infected PBMC” value (HIV-1 BaL gp120 [4]) of the same binder?
A: > 40 µg/mL

Q: What about the “IC50, ADCVI with neutrophils, 89.6-infected PBMC” value (HIV-1 89.6 gp120 [5]) of the same binder?
A: > 40 µg/mL

Q: And the “IC50, ADCVI with neutrophils, JR-FL-infected PBMC” value (HIV-1 JR-FL gp120 [6])?
A: 16.6 µg/mL

B2: b12 IgA2 purified from CHO cells (antibody, V domains shown)
VH: QVQLVQSGAEVKKPGASVKVSCQASGYRFSNFVIHWVRQAPGQRFEWMGWINPYNGNKEFSAKFQDRVTFTADTSANTAYMELRSLRSADTAVYYCARVGPYSWDDSPQDNYYMDVWGQGTTVIVSS
VL: EIVLTQAPGTLSLSPGERATFSCRSSHSIRSRRVAWYQHKPGQAPRLVIHGVSNRASGISDRFSGSGSGTDFTLTITRVEPEDFALYYCQVYGASSYTFGQGTKLERKR
Q: Which results are given for B2?
A: IC90, neutralization of HIV SF162 (TZM-bl assay) (HIV-1 SF162 gp120 [7]): 1.03; IC90, neutralization of HIV 89.6 (TZM-bl assay) (HIV-1 89.6 gp120 [8]): 6.75; IC50, ADCVI assay with PMN (+ PMN), SF162-infected PBMC (HIV-1 SF162 gp120 [9]): 0.3 µg/mL; IC50, ADCVI assay without PMN (- PMN), SF162-infected PBMC (HIV-1 SF162 gp120 [9]): 9.5 µg/mL; IC50, ADCVI assay with PMN (+ PMN), 93MW960-infected PBMC (HIV-1 93MW960 gp120 [10]): 10 µg/mL; IC50, ADCVI assay without PMN (- PMN), 93MW960-infected PBMC (HIV-1 93MW960 gp120 [10]): > 20 µg/mL; IC50, ADCVI assay with PMN (+ PMN), BaL-infected PBMC (HIV-1 BaL gp120 [11]): 2.1 µg/mL; IC50, ADCVI assay without PMN (- PMN), BaL-infected PBMC (HIV-1 BaL gp120 [11]): > 20 µg/mL; IC50, ADCVI assay with PMN (+ PMN), 89.6-infected PBMC (HIV-1 89.6 gp120 [12]): 14.5 µg/mL; IC50, ADCVI assay without PMN (- PMN), 89.6-infected PBMC (HIV-1 89.6 gp120 [12]): > 20 µg/mL; IC50, ADCVI assay with PMN (+ PMN), JR-FL-infected PBMC (HIV-1 JR-FL gp120 [13]): > 20 µg/mL; IC50, ADCVI assay without PMN (- PMN), JR-FL-infected PBMC (HIV-1 JR-FL gp120 [13]): > 20 µg/mL

B3: b12 IgA2 expressed in milk (antibody, V domains shown)
VH: B2 VH
VL: B2 VL
Q: How did the “IC90, neutralization of HIV SF162 (TZM-bl assay)” value (HIV-1 SF162 gp120 [7]) turn out when B3 was run?
A: 0.34

Q: And the “IC90, neutralization of HIV 89.6 (TZM-bl assay)” value (HIV-1 89.6 gp120 [8])?
A: 1.85

Q: What about the “IC50, ADCVI assay with PMN (+ PMN), SF162-infected PBMC” value (HIV-1 SF162 gp120 [9]) of the same binder?
A: 0.4 µg/mL

Q: What about the “IC50, ADCVI assay without PMN (- PMN), SF162-infected PBMC” value (HIV-1 SF162 gp120 [9]) of the same binder?
A: 6.6 µg/mL

Q: What about the “IC50, ADCVI assay with PMN (+ PMN), 93MW960-infected PBMC” value (HIV-1 93MW960 gp120 [10]) of the same binder?
A: 3.3 µg/mL

Q: And the “IC50, ADCVI assay without PMN (- PMN), 93MW960-infected PBMC” value (HIV-1 93MW960 gp120 [10])?
A: > 20 µg/mL

Q: And the “IC50, ADCVI assay with PMN (+ PMN), BaL-infected PBMC” value (HIV-1 BaL gp120 [11])?
A: 2.3 µg/mL

Q: And the “IC50, ADCVI assay without PMN (- PMN), BaL-infected PBMC” value (HIV-1 BaL gp120 [11])?
A: 19.3 µg/mL

Q: What about the “IC50, ADCVI assay with PMN (+ PMN), 89.6-infected PBMC” value (HIV-1 89.6 gp120 [12]) of the same binder?
A: 3.9 µg/mL

Q: And the “IC50, ADCVI assay without PMN (- PMN), 89.6-infected PBMC” value (HIV-1 89.6 gp120 [12])?
A: 4.8 µg/mL

Q: And the “IC50, ADCVI assay without PMN (- PMN), JR-FL-infected PBMC” value (HIV-1 JR-FL gp120 [13])?
A: 9.6 µg/mL

B4: b12 IgA2 purified from milk (antibody, V domains shown)
VH: B2 VH
VL: B2 VL
Q: Which “IC90, neutralization of HIV SF162 (TZM-bl assay)” value (HIV-1 SF162 gp120 [7]) does the source give for B4 here?
A: 0.79

Q: And the “IC90, neutralization of HIV 89.6 (TZM-bl assay)” value (HIV-1 89.6 gp120 [8])?
A: 8.37

Q: And the “IC50, ADCVI assay with PMN (+ PMN), SF162-infected PBMC” value (HIV-1 SF162 gp120 [9])?
A: 0.3 µg/mL

Q: And the “IC50, ADCVI assay without PMN (- PMN), SF162-infected PBMC” value (HIV-1 SF162 gp120 [9])?
A: 2.1 µg/mL

Q: And the “IC50, ADCVI assay with PMN (+ PMN), 93MW960-infected PBMC” value (HIV-1 93MW960 gp120 [10])?
A: 17.5 µg/mL

Q: And the “IC50, ADCVI assay without PMN (- PMN), 93MW960-infected PBMC” value (HIV-1 93MW960 gp120 [10])?
A: > 20 µg/mL

Q: And the “IC50, ADCVI assay with PMN (+ PMN), BaL-infected PBMC” value (HIV-1 BaL gp120 [11])?
A: 2.2 µg/mL

Q: And the “IC50, ADCVI assay without PMN (- PMN), BaL-infected PBMC” value (HIV-1 BaL gp120 [11])?
A: 13.1 µg/mL

Q: And the “IC50, ADCVI assay with PMN (+ PMN), 89.6-infected PBMC” value (HIV-1 89.6 gp120 [12])?
A: 17.1 µg/mL

Q: What about the “IC50, ADCVI assay without PMN (- PMN), 89.6-infected PBMC” value (HIV-1 89.6 gp120 [12]) of the same binder?
A: > 20 µg/mL

Q: What about the “IC50, ADCVI assay with PMN (+ PMN), JR-FL-infected PBMC” value (HIV-1 JR-FL gp120 [13]) of the same binder?
A: > 20 µg/mL

Q: What about the “IC50, ADCVI assay without PMN (- PMN), JR-FL-infected PBMC” value (HIV-1 JR-FL gp120 [13]) of the same binder?
A: > 20 µg/mL

B5: F425-A1g8 IgG1 antibody variant (antibody, V domains shown)
VH: QEQLVESGGGVVQPGRSLRLSCEASGFIFSAFVLHWVRQAPGKGLEWVAVVWYDGNSKYYADSVKGRFTISRDTSQNTLHLQMDSLRPEDTAVYYCAREWVADDDTFDGFDVWGQGTMVTVSS
VL: EIVLSQSPATLSLSPGERATLSCRASQSVTNSLAWYQQKPGQAPRLLIYDASNRATGIPARFSGSGSGTDFTLTISSLEPEDFAVYYCQQRSNWPPEVTFGPGTKVDIKR
Q: Which “IC50, neutralization of HIV-1 JR-FL (TZM-bl cells, no sCD4)” value (HIV-1 JR-FL gp120 [1]) does the source give for B5 here?
A: > 40 µg/mL

Q: And the “IC50, neutralization of HIV-1 67970 (TZM-bl cells, no sCD4)” value (HIV-1 67970 gp120)?
A: > 40 µg/mL

Q: And the “IC50, ADCVI with neutrophils, SF162-infected PBMC” value (HIV-1 SF162 gp120 [2])?
A: > 40 µg/mL

Q: And the “IC50, ADCVI with neutrophils, 93MW960-infected PBMC” value (HIV-1 93MW960 gp120 [3])?
A: 9.5 µg/mL

Q: And the “IC50, ADCVI with neutrophils, BaL-infected PBMC” value (HIV-1 BaL gp120 [4])?
A: > 40 µg/mL

Q: What about the “IC50, ADCVI with neutrophils, 89.6-infected PBMC” value (HIV-1 89.6 gp120 [5]) of the same binder?
A: > 40 µg/mL

Q: And the “IC50, ADCVI with neutrophils, JR-FL-infected PBMC” value (HIV-1 JR-FL gp120 [6])?
A: > 40 µg/mL
